According to patent US10502741B2, “Means and methods for detecting activated MALT1” (Helmholtz Zentrum München Deutsches Forschungszentrum für …, priority 2014, dated 2019):

Biological target: T1, active MALT1 (Homo sapiens, UniProt Q9UDY8)
T1 construct: endogenous in cells; host or cells: Jurkat T cells, primary human PBMCs and T cells, DLBCL cell lines (HBL1, TMD8, OCI-Ly3, OCI-Ly10, U2932, RIVA, BJAB, Su-DHL-4, Su-DHL-6)
T1 sequence (Q9UDY8 1-824): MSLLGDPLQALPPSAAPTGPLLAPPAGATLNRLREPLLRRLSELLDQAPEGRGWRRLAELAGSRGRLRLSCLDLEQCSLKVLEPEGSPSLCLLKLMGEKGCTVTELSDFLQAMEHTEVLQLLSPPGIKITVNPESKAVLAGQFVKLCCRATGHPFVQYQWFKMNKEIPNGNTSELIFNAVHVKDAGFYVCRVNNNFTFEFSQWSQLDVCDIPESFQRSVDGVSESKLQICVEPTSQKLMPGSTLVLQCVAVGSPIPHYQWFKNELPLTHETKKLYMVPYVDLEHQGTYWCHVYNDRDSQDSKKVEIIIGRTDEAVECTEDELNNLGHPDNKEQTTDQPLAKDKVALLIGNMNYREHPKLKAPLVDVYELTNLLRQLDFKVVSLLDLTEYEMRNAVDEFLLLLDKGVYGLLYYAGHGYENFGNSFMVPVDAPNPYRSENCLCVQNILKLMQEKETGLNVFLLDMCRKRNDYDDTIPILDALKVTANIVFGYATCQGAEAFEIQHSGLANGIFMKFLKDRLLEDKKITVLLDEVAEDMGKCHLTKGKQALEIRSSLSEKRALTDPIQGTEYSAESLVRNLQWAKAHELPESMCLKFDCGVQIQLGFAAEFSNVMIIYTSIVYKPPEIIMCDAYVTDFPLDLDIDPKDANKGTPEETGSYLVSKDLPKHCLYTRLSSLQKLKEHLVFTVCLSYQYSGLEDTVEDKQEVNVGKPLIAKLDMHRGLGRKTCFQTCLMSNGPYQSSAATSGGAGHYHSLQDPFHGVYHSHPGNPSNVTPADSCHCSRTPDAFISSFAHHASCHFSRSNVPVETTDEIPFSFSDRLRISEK
Assay: Probe 7-pulldown with streptavidin beads and western blot
Format: cell-based
Settings: Jurkat T cells pretreated with 10 μM inhibitors, 0.1 μM probe 7
Method: Jurkat T cells were cultured in standard RPMI medium containing 10% FCS, 100 U/ml Penicillin/Streptomycin and 2 mM Glutamin. DNA transfection of 6 μg DNA in 8×10^6 Jurkat T cells was performed by electroporation in a GenePulser Xcell (BioRad) with a 220 Volt pulse. For siRNA experiments, Jurkat T cells were transfected with 100 nM siRNA and Atufect transfection reagent (Silence Therapeutics, Berlin). Jurkat T cells were stimulated either with 200 ng/ml PMA (phorbol 12-myristate 13-acetate) and 300 ng/ml Ionomycin (both Calbiochem) or CD3/CD28 antibody co-ligation (human CD3: 1 μg/ml; human CD28: 4 μg/ml; mouse IgG1: 2 μg/ml; mouse IgG2a: 2 μg/ml; BD Biosciences). DLBCL cell lines (HBL1, TMD8, OCI-Ly3, U2932, RIVA, BJAB, Su-DHL-4 and Su-DHL-6) were cultured in standard RPMI medium containing 20% FCS, 100 U/ml Penicillin/Streptomycin and 2 mM Glutamin. OCI-Ly10 cell line was cultured in IMDM containing 20% human serum, 100 U/ml Penicillin/Streptomycin, 2 U/ml heparine, 50 μM β-mercaptoethanol. Inhibitors 10 μM (z-VRPR-FMK, Mepazine, Thioridazine, CA-074Me) were added to the cells in media for 1 h, prior to stimulation and labeling with diagnostic MALT1 inhibitor.
Untreated DLBCL (1-2×10^7) or Jurkat T cells (stimulated with PMA/Ionomycin or CD3/28 or left untreated; 1-2×10^7), were lysed in 500 μl co-IP buffer without protease inhibitors, centrifuged, incubated with probe 7 (concentration as depicted) for 1 h at RT then incubated with streptavidin beads for 2 h at 4° C. Precipitate was washed, analysed by SDS-PAGE and western blot.

z-VRPR-FMK (Z N-terminal cap, FMK warhead)
effect of inhibitor on formation of MALT1-probe 7 complexes: blocked
